Source: patent publication US20230313305A1, “METHODS AND USES OF INFLAMMATORY BOWEL DISEASE BIOMARKERS” (Washington University, priority 2017, published 2023)

Test system: latent TGFβ
Experiment: Cleavage of latent TGFβ by tPA in cell free assay
Format: biochemical
Conditions: cell free assay (FIG. 22)

B1: tPA: serine protease that converts plasminogen to plasmin (protein, UniProt P00750 36-562, looked up)
Tissue-type plasminogen …: SYQVICRDEKTQMIYQQHQSWLRPVLRSNRVEYCWCNSGRAQCHSVPVKSCSEPRCFNGGTCQQALYFSDFVCQCPEGFAGKCCEIDTRATCYEDQGISYRGTWSTAESGAECTNWNSSALAQKPYSGRRPDAIRLGLGNHNYCRNPDRDSKPWCYVFKAGKYSSEFCSTPACSEGNSDCYFGNGSAYRGTHSLTESGASCLPWNSMILIGKVYTAQNPSAQALGLGKHNYCRNPDGDAKPWCHVLKNRRLTWEYCDVPSCSTCGLRQYSQPQFRIKGGLFADIASHPWQAAIFAKHRRSPGERFLCGGILISSCWILSAAHCFQERFPPHHLTVILGRTYRVVPGEEEQKFEVEKYIVHKEFDDDTYDNDIALLQLKSDSSRCAQESSVVRTVCLPPADLQLPDWTECELSGYGKHEALSPFYSERLKEAHVRLYPSSRCTSQHLLNRTVTDNMLCAGDTRSGGPQANLHDACQGDSGGPLVCLNDGRMTLVGIISWGLGCGQKDVPGVYTKVTNYLDWIRDNMRP
cleavage of latent TGFβ: can directly and indirectly cleave
